Several values for one entry are separate records, joined by “and”; a condition that tells them apart may be missing. Equal entries are not always repeated.
Key:
[1] = biological target: soluble HIV 89.6 gp120 envelope protein (HIV 89.6 (Clade B) primary isolate) (UniProt Q73372)
[2] = biological target: HR-2 peptide DP178 (HIV-1 89.6)
soluble CD4 [3] = biological target: soluble CD4 (UniProt P01730); test: SPR, gp120 over immobilised CD4
soluble CD4 [4] = biological target: soluble CD4 (UniProt P01730); test: SPR (BIAcore), gp120 and CD4
soluble CD4 [5] = biological target: soluble CD4 (UniProt P01730); test: SPR, preliminary experiments
[6] = biological target: A32-gp120 complex (HIV 89.6 gp120 bound to mab A32) (HIV 89.6 (Clade B) primary isolate) (UniProt Q73372); test: SPR SA-chip assay, single component
[7] = biological target: soluble HIV 89.6 gp120 envelope protein (HIV 89.6 (Clade B) primary isolate) (UniProt Q73372); test: SPR SA-chip assay, gp120 over scrDP178 surface
[8] = biological target: soluble HIV 89.6 gp120 envelope protein (HIV 89.6 (Clade B) primary isolate) (UniProt Q73372); remark: listed apart in the source
[9] = biological target: soluble HIV 89.6 gp120 envelope protein (HIV 89.6 (Clade B) primary isolate) (UniProt Q73372); test: SPR SA-chip assay, 89.6 gp120 over scrDP178 surface
[10] = biological target: A32-gp120 complex (HIV 89.6 gp120 bound to mab A32) (HIV 89.6 (Clade B) primary isolate) (UniProt Q73372); test: SPR SA-chip assay (FIG. 28B)
[11] = biological target: scrambled sequence DP178 peptide; test: SPR SA-chip assay, scrDP178 surface

Question: With mab 17b (antibody) as the substance, how does the % blocking of DP178 binding [1] read?
Answer: 80%

Question: How did the koff [2] turn out when “soluble HIV 89.6 gp120 envelope protein, Q73372 32-508” was run?
Answer: 0.017 s⁻¹

Question: With mAb 48d (antibody) as the substance, how does the % blocking of DP178 binding [1] read?
Answer: 80%

Question: How did the Kd (soluble CD4 [3]) turn out when soluble, monomeric gp120 JRFL was run?
Answer: 146 nM

Question: What about the koff (soluble CD4 [3]) of the same substance?
Answer: 0.00088 s⁻¹

Question: And the Kd (soluble CD4 [4])?
Answer: 150 nM

Question: What about the koff (soluble CD4 [4]) of the same substance?
Answer: 0.000884 s⁻¹

Question: What about the kon (soluble CD4 [4]) of the same substance?
Answer: 6000 M⁻¹ s⁻¹

Question: What about the t1/2 of binding (soluble CD4 [5]) of the same substance?
Answer: 14 min

Question: What does the source list for soluble, monomeric gp120 DH12?
Answer: Kd (soluble CD4 [3]): 96 nM; koff (soluble CD4 [3]): 0.00047 s⁻¹; Kd (soluble CD4 [4]): 78 nM; koff (soluble CD4 [4]): 0.000386 s⁻¹; kon (soluble CD4 [4]): 4900 M⁻¹ s⁻¹; t1/2 (soluble CD4 [4]): 30 min; t1/2 of binding (soluble CD4 [5]): 25 min

Question: For scrambled sequence DP178 peptide, which koff [6] is on record?
Answer: 0.017 s⁻¹

Question: What about the RU [7] of the same substance?
Answer: 50 RU

Question: And the band density [8]?
Answer: 0.6 ODunits/mm^2

Question: And the RU (background signal) [9]?
Answer: 10 RU and 20 RU

Question: And the RU [10]?
Answer: < 200 RU

Question: With mab A32 (antibody) as the substance, how does the RU (background signal) [11] read?
Answer: 10 RU and 20 RU

Question: Which % blocking of DP178 binding [1] does the source give for mab 19b (antibody) here?
Answer: 68%
